Laboratory results reported in the nanobody polyreactivity screen of Harvey et al. (2022).

assay: yeast display, Sf9 membrane polyspecificity reagent, FACS + sequencing; frameworks hold sequencing errors
In short: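 Using colony PCR, genes from sorted yeast display clones were amplified, then sequenced on MiSeq at 2 × 250 and filtered by CDR length. The clones had been stained with 10% biotinylated, detergent-solubilized Sf9 membrane reagent for 1 hour at 4 °C and sorted by FACS into low and high (top ~1%) gates on anti-HA and streptavidin fluorescence. Polyreactivity labels come from the gate of origin.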

| Sequence | polyreactivity (PSR sort gate) |
| --- | --- |
| QVQIGESGGGLVQAGGSLRLSCAASGSTFWRYAMGWDRPATGKECELVASITGGGGSTYYADSVKGRFTISRDNAKNTVDLQMHRLKPEDNAVYSCNARRYYRVDSYDYWGQGTQVTVSS | high polyreactivity |
| QVQLVESGGGLFQAGGSLRLTCAASGSTISDYAIGWYRQAPGKERELVAAISTRGGSTYYADSVKGRFTISRDNAKNTVYLQMNSLKPEDTAVYYCAKGGYVPKLEYWGQGTQVTVSS | high polyreactivity |
| QVQLVESGGGLVQAGGSLRLSCAASGLIFRHYTMGWYRQAPGKERELVAAISRSGGSTRYADSVKGRFTISRDNAKNTVYLQMNSLKPEDTAVYYCAASSVKSTWTLDYWGQGTQVTVSS | high polyreactivity |
| QVQLVESGGGLVQAGGSLRLSCAASGSTFDYNTMGWYRQAPGKERELVAAISWRGVSTYYADSVKGRFTISRDNAKNTVYLQMNSLKTEDTAVYYCNAVHHYPEHIGGGYWGQGTQVTVSS | low polyreactivity |
| QVQLVESGGGLVQAGGSLRLSCAASGRIFGYYAMGWSRQAPGKEREFVAAINWRGSSTTYADSVKGRFTISRDNAKNTVYLQMNSLKPEDTAVYYCKRVFGGGQWVYGYWGQGTQVTVSS | high polyreactivity |
| QVQLVESGGGLVQAGGSLRLSCAASGSTFGPYAMGWYRPAPGKEMELVATITRNGGSTYYADSVKGRFTISRDNAKNTVYLQMNSLKPEDTAVYYCNAEGRWSSFTQRMDYWGQGTQVTVSS | low polyreactivity |
| QVQLVESGGGLVQAGGSLRLSCAASGRTSWYYAMGWYRQAPGKERELVAAISVRAGSTYYADSVKGRFTISRDNAKNTVYLQMNSLKPEDTAVYYCAREYSPYTSRRDYWGQGTQVTVSS | high polyreactivity |
| QVQLVESGGGLVQAGGSLRLSCAASGFIFTDNAMGWYRQAPGKEREFVAAITYSGGSTYYADSVKGRFTISRDNAKNTVYLQMNSLKPEDTAVYYCNKDVFPAPGGVTAYEYEYWGQGTQVTVSS | low polyreactivity |
| QVQRVESGGGLVQAGGSLRLSCSASGRTFGHNTMGRYRQAPGKETEFVAAIDFNGGSTYYADSVKGRFTISRDNAQNTVYLQMNSLKPEDTAVYYCAADIYFYYYGSYDYWGQGTQVTVSS | low polyreactivity |
| QVQLVESGGALVQAGGSLRLSSAASGSIFGSNGIGSYRPAPGKERELVAAITRSGGSTRYADSVKGRFTISRDNAKNTVYLQMNSLKPEDTAVYYCAKYDTSTGYDYWGQGTQVTVSS | high polyreactivity |
| QVQLVESGGGLVQAGGSLRLSCAASGRIFVGYTMGWYRQAPGKERELVAAISSRGGRTNYADSVKGRFTISRDNAKNTVYLQMNSLKPEDTAVYYCATRLYPHQYYYWGQGSQVTVSS | high polyreactivity |
| QVQLVESGGGLVQAGGSLRLSCAASGNTFNNNAMGWYRQAPGKERELVAAISGSGGSTYYADSVKGRFTISRDNAKNTVYLQMNSLKPEDTAVYYCAVRLVHGGKRYGYWGQGTQVTVSS | high polyreactivity |
| QVQLVESGGGLVQAGGSLRLSCAASGSIFSSNAMGWYRQAPGKERELGAAISRSACSTYYADSVKGRFTISRDNAKNTVYLQMNSLKPEDTAVYYCNAVTRLGTYDYWGQGTQVTVSS | high polyreactivity |
| QVQLVESGGGLVQAGGSLRLSCAASGSILAIYAMGWYRQAPGKERELVAAITWSGDSTYYADSVKGRFTISRDNAKNTVYLQMNSLKPEDTAVYYCAAGPGYWYEHEYWGQGTQVTVSS | low polyreactivity |
| QVQLVESGGGLVQAGGSLRLSCAASGSIFVWNARGWYRQAPVKERELVAAISYTDGSTYYADFVKGRFTISRDNAKNTVYLQMNSLKPEDTAVYFCAAAITRSYTGSEYDYWGQGTEVTVSS | low polyreactivity |
| QVQLVESGGGLVQAGGSLRLSCAASVRTFKYYAMGWYRQAPGKERELVASISRGGGSTYYADSVKGRFTISRDNAKNTVYLQMNSLKPDDTAVYYCAAYLRTRYIYCGQGTQVTVSS | high polyreactivity |
| QVQLVESGGGLVQAGGSLRLSCAASGSTFRINAMGWYRQAPGKERELVADINSGGNTTYADSVKGRFTISRDNAKNTVYLQMNSLKPEDTAVYYCNAPYSFFWQQMNYWGQGTQVTVSS | low polyreactivity |
| QLQLVESRGGLVQSGGSLRLSCAASGRIFWRYAMGWYRQAPGNERELVAAISGRSGSTYYADSVKGRFTISRDNAKNTVYLLMNSLKAEDTAVYYCAAKYGTLRYDYWGQGTQVTVSS | high polyreactivity |
| QVQLVESGGGLVQAGGSLRLSCAASGSNFRFYVMGWYRQAPGKERELVAAISIGGSTNYADSVKGRFTISRDNAKNSVYLQMNSLKPEDTAVYYCAADYWYGAGLPHGTEFDYWGQGTQVTVSS | low polyreactivity |
| QVQLVESGGGLVQAGGSLRLSGAASGFISFPYAMGWDTQATGKERELVASITRSGGNTYYADSVKGRFTISRDNEKNTVYLQMNSLKPEDTAVYYCNAQIYTYRSGRGYSRMDYWGEGTQVTVSS | high polyreactivity |
| QVQLVESGGGLVQAGGSLRLSCAASGFIFKSYAMGWYRPAPGKERELVAAISSGGTTNYADSVKGRFTISRDNANNTVYLQMNSLKPEDTAVYYCAAALHGHTFPFYYWGHGTQVTVSS | low polyreactivity |
| QVQLVESGGGLVQAGGSLRLSCAASGSTFGRYAMGCYIQAPGKERELVAAITRSGGRTYYADSVKGRFTISRDNAKNTVYLQMNSLIPEDTAVYYCAARSRRRFDWGQGTQVTVSS | high polyreactivity |

| Sequence | polyreactivity (PSR sort gate) |
| --- | --- |
| QVQLVESGGGLVQAGGSLRLSCAASGSIFGAYAMRWYRQAPGKERELVAAISYGGGNTYYADSVKGRFTISRDNAKNTVYLQMNSLKPEDTAFYYCNALFPRVSGSTYRYNYWGQGTQVTVSS | high polyreactivity |
| QVQLVESGGGLVQAGGSLRLSCAASGSTFGTNAMGWYRQAPGKERELVAAITKSGGSTYADSVKGRFTISRDNAKNTVYLQMNSLKPEDTAVYYCAAPNRYSVPMYYWGQGTQVTVSS | low polyreactivity |
| QVQLVESGGGLVQAGGSLRLSCAASGSTFTTNAMGWYRQAPGKERELVAAISSGGRTYYADSVKGRFTISRDNAKNTVYLQMNRLKPEDTAVYYCAAEIYYSIYQGSRFYYRGQGTQVTVSS | high polyreactivity |
| QVQLVESGGGLVQAGGSLRLSCAASGSIFRIYAMGWYRQAPGKERELVAAISFSTGSRTYYADSVKGRFTISRDNAKNTVYLQMNSLKPEDTAVFYCNAESYYDYNYWGQGTQVTVSS | low polyreactivity |
| QVQLVESGGGLVQAGGSLRLSCAASGRTFRLNGMGWYRQAPGKDRELVAAITWSGGRTYYADSVKGRFTISRDNAKNTVYLQKNSLKPEDTAVYYCAAGKSSYGIPKYYYWGQGTQVTVSS | high polyreactivity |
| QVQLVESGGGLVQAGGSLRLSCAASGRIYTWNAMGWYRQAPGKERDLVASISRSGTSTYYADSVKGRNTISRDNALTTVYLQMNSLKPEDTAVYYCAAKTSRGDRTQVEYWGQGTQVTVSS | high polyreactivity |
| QVQHVESGRGLVQAGGSLRLSCAGSGFIFYKYAMGWYRQAPGKERELVAAITRGGSTNYADSVKGRFTISRDTAKNTVFLQMNSLKPEDTAVYYCAAGNRYGVRQLYQIVTRYYWGQGTQVTVSS | high polyreactivity |
| QVQLEESGGGLVQAGGSLRLSCAASGRTFYIYAMGWYRQAAGKERELVAAITWSGGTTYYADSVKGRFTISRDNAKNTVYLQMNSLKPEDTAVYDCNAGATYVKRRRGRKYDYWGQGTQVTVSS | low polyreactivity |
| QVQLVESGGGLVQAGGSLRLSCAASGIIFHYYAMGWYRQAPGKEREFVASISFSGSSTYYADSVKGRFTISRDNAKNTVYLQMNSLKPEDTAVYYCAARYLYGPKYYYWGQGTQVTVSS | high polyreactivity |
| QVQLVESGGGVVQAGGILSLSCAASGFTFATYAMGWYRQAPGKERELVAGITRSGGSTYYADSVKGRFTNSRYNAKNTVYLQMNSLKPEDTAVYYCNKAYGGDKYSGTYDYWGQGTQVTVSS | high polyreactivity |
| QVQLVESGGGLVQAGGRLRLSCAASGFTFNRNAMGWYRQAPGKERELVAAISDSGDNTYYADSVKGRFTISRDNAKNTVYLQMNSLKPEDTAVYYCATSFYGFSYHWFDYWGQGTQVTVSS | low polyreactivity |
| QVQIVESGGGLVQAGGILRLSCAASGRIFYTNAMGWYRKAPAKERELVAAIDNSDSTTYYADSVKWRYTISRDNAKNTVYLQMNSLKPEDTAVYYCAAESYLYTVTFEYWGQGTQVTVSS | high polyreactivity |
| QFQLGESGGGLVQAGGSLRLSCAASGSTFSGYTKGWYRQARGKEREFVAAISSRGGSTYYADSVKGRFTISRDNAKNTVYLQMYRLNPEDTAVYYCAAKVCARVDGRQFRMEYWGQGTQVTVSS | high polyreactivity |
| QVQLVESGGGLVQAGGSLRLSCAASGSTFYQNAMGWYRQAPGKERELVAAISIGGGRTYYADSVKGRFTISRDNAKNTVYLQMNSLKPEDTAVYYCAAGPTGRYRREFRFDYLGQGTQVTVSS | low polyreactivity |
| QVQLVESGGGLVQAGGSLRLSCAASGRTFDYNTMGWYRQAPGKERELVAAISASGGSTYYADSVKGRFTISRDNAKNTVYLQMNSLKPEDTAVYYCAAARAAIVPGYYSWGQGTQVTVSS | low polyreactivity |
| QVQLVESGVGLVQAGGSLRLSCAASGNIFLKNAMGWYRQAPGKERELVAAMSKRGGSTYYADSVKGRFTISRDNAKNTVYLQMNSLKPEDTAVYYCAARFKTTGYDYWGQGTQVTVSS | high polyreactivity |
| QVQLVESGGGLVQAGGILRLSCAASGGTFTYNAMGWYRQAPGKERELVAAITNGGGSTYYADSVKGRFTISRDNAKNTVYLQMNSLKPEDTAVYYCAARWWYYYTEYDYWGQGTQVTVSS | low polyreactivity |
| QVQLVESGGGLVQAGGSLRLSCAASGIIFVWYAMGWYRQAPGKERELVAAIRSGGITNYADSVKGRFTISRDNAKNTVYLQMNSLKPEDTAVYYCDAPYRTDTGDDYWGQGTQVTVSS | low polyreactivity |
| QVQLVESGGGLVQAGGSLRLSCAAYGSTFVSNAMGWSRPAPGKERELVAAISSSGGSTYYADSVKGRFTISRDTATNTVYLQMNSLKPEDTAVYYCVDYYNGYTHNYNYWGQGTQVTVSA | low polyreactivity |
| QVQLVESGGGLVQAGGSLRLSCAASGLTFPGYVMGWYRQAPGKERELVAAITNGGRTYYADSVKGRFTISRDNAMNTVYLQMNSLKPEDTAVYYCNTARGSKDPPHYYWGQGTQVTVSS | high polyreactivity |
| QVQLVESGGGLVQAGGSLRLSCAASGSTFYSNVMGWYRQAPGKERELVAAISQSGGRTFYADSVKGRFTISRDNAKNTVYLQMNSLKPEDTAVYYCNNVRAQPRNPYDYWGQGTQVTVSS | high polyreactivity |
